This is an account of results in publication PMC11720309, “Transcriptional regulation of miR528-PPO module by miR156 targeted SPLs orchestrates chilling response in banana”.

What all share (settings): protein: recombinant; tags: GST (N-terminal, pGEX-4T-3); blunt
Data set [1] concerns the target T1, MaSPL5 (UniProt A0A804I0H4 1-393).
T1 sequence: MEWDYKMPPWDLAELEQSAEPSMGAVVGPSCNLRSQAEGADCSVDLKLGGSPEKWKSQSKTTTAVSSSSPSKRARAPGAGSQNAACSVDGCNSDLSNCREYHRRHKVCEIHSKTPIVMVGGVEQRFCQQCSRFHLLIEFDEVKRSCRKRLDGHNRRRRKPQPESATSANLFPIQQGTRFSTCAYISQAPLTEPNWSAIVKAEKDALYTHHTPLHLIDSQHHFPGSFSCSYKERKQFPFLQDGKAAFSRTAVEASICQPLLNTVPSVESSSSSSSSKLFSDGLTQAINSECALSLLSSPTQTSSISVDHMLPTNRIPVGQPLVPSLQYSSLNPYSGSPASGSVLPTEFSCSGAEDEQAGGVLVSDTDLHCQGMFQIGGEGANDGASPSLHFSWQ
Briefly: EMSA; Chemiluminescent EMSA Kit (Thermo Fisher); buffer, salt, pH and temperature not stated. In general terms: Mobility shift assays separate free from complexed probe on a gel.

Data set [2] concerns the target T2, MaSPL4 (UniProt A0A804HZD8 1-178).
T2 sequence: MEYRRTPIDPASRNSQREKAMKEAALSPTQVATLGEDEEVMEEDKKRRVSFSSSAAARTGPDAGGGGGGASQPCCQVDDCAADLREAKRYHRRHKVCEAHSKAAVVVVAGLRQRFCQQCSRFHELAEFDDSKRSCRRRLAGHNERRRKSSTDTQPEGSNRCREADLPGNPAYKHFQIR
The description is as above.

Data set [3] has as its target T3, MaSPL44 (UniProt A0A804KAB2 1-473).
T3 sequence: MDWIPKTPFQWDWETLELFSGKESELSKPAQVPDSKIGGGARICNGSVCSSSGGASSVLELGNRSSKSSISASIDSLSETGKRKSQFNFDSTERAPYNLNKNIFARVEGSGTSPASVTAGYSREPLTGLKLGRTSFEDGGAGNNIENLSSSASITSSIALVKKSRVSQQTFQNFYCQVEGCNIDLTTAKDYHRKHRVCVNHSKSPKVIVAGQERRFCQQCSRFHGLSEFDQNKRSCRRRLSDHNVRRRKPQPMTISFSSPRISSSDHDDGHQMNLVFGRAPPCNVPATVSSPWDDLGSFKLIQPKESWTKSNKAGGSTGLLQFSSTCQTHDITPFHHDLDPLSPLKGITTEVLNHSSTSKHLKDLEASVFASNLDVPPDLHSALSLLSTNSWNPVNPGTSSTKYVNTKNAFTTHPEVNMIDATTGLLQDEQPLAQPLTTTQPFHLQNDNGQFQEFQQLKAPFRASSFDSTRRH
The data set is described as above.

Data set [4] concerns the target T1, MaSPL5. Put plainly: competition; unlabeled competitor vs biotin-N1 (EMSA); Chemiluminescent EMSA Kit (Thermo Fisher); buffer, salt, pH and temperature not stated.
For data set [5], the target named is T2, MaSPL4. The description is as above.
Data set [6] deals with T3, MaSPL44. The data set is described as above.

B1: MamiR528pro-probe (dsDNA)
DNA 1: GCGCAGTACAGTGCAGTACTAAGATACTACACAAACCACACAATAGAAGTACCACTATC
DNA 2: GATAGTGGTACTTCTATTGTGTGGTTTGTGTAGTATCTTAGTACTGCACTGTACTGCGC
B1: the binding result in the data set with MaSPL5 [1], with MaSPL4 [2] and in the data set with MaSPL44 [3] was “binds” in each case.

B2: MamiR528pro-mut-probe (dsDNA)
DNA 1: GCGCAAAAAAGTGCAAAAATAAGATACTACACAAACCACACAATAGAAAAAACACTATC
DNA 2: GATAGTGTTTTTTCTATTGTGTGGTTTGTGTAGTATCTTATTTTTGCACTTTTTTGCGC
As for B2, the binding result in the data set with MaSPL5 [4], with MaSPL4 [5] and in the data set with MaSPL44 [6] was “no binding” throughout.
